B1: Hairpin Ribozyme (parent)
chain: GUCCUCUUUCACGUGCGCGUGAAAGAGAGAAGUGAACCAGAGAAACACACGUUGUGGUAUAUUACCUGGUA

Variants of: B1
Assay: self-cleavage, relative activity (ratio to wild type); higher = more cleavage; co-transcriptional

First: A39C A61G
Second: U5G G29C
The self-cleavage of the first is higher: 0.131 for the first, 0.0639 for the second.

Compared with A49G U62A, G21A U70G is higher in self-cleavage: 0.0894 for the first, 0.821 for the second.

First: C18U G42C
Second: G17U A30G
The self-cleavage of the first is higher: 0.416 for the first, 0.134 for the second.

First: G25C A71U
Second: G34A A43U
The self-cleavage of the first is higher: 0.476 for the first, 0.18 for the second.

Going from G1C G17C to U8A G32C, the self-cleavage falls from 0.295 to 0.111.

Compared with U8C A28G, U9C U55G is lower in self-cleavage: 1.07 for the first, 0.266 for the second.

First: G51C A64C
Second: U53A A71G
The self-cleavage of the first is lower: 0.156 for the first, 1.07 for the second.

Compared with C16G U53C, C4G C12A is lower in self-cleavage: 0.949 for the first, 0.071 for the second.

Going from U8C U58C to G51U C66U, the self-cleavage falls from 0.911 to 0.599.

Going from A11U C12A to U55A C66U, the self-cleavage falls from 0.763 to 0.258.

Compared with U2C C16G, C4A A35U is lower in self-cleavage: 0.246 for the first, 0.188 for the second.

Going from U5C A45C to A59G U70A, the self-cleavage rises from 0.0908 to 0.163.

Compared with U7C A41U, G29A C37U is lower in self-cleavage: 0.98 for the first, 0.134 for the second.

Compared with A30G A49C, A39G U52A is higher in self-cleavage: 0.0806 for the first, 0.23 for the second.

First: A23U U67C
Second: G27C U63A
The self-cleavage of the first is higher: 0.229 for the first, 0.174 for the second.

Going from U5A A30C to G13A G29A, the self-cleavage rises from 0.0813 to 0.167.

Going from C46A U70C to A30C A43G, the self-cleavage falls from 0.026 to 0.

Going from U2A G15U to G21A U62A, the self-cleavage falls from 0.289 to 0.135.

Compared with G15U G32U, C16G C46U is lower in self-cleavage: 0.144 for the first, 0.0715 for the second.

First: A24U G56C
Second: C4G A64U
The self-cleavage of the first is lower: 0.14 for the first, 0.142 for the second.

Compared with A22U C66A, C3A A61U is lower in self-cleavage: 0.209 for the first, 0.199 for the second.

First: C4U A59G
Second: U53A C65G
The self-cleavage of the first is lower: 0.163 for the first, 0.28 for the second.

Going from G54C U67G to A11U A71C, the self-cleavage rises from 0.174 to 1.17.

Going from C3U C65U to C6G G19C, the self-cleavage falls from 0.334 to 0.328.

Compared with A39U G40U, U8G A24C is higher in self-cleavage: 0.149 for the first, 0.592 for the second.

First: A43C A59G
Second: U14C C66G
The self-cleavage of the first is lower: 0.284 for the first, 0.337 for the second.

Compared with U14C C16U, C3U U20G is lower in self-cleavage: 0.728 for the first, 0.561 for the second.

Going from U52G A64U to U7C G42U, the self-cleavage rises from 0.183 to 0.205.

Compared with U52C A61G, C3G U33A is lower in self-cleavage: 0.253 for the first, 0.138 for the second.

First: G40A A47C
Second: G32U U52G
The self-cleavage of the first is higher: 0.194 for the first, 0.0995 for the second.

First: A26C A41C
Second: C10A C50A
The self-cleavage of the first is higher: 0.734 for the first, 0.255 for the second.

First: U7A C50G
Second: G29U U60C
The self-cleavage of the first is higher: 0.269 for the first, 0.107 for the second.

Compared with C18U G27A, U9A A41G is higher in self-cleavage: 0.433 for the first, 0.675 for the second.

First: A24C G40A
Second: G1A C50G
The self-cleavage of the first is higher: 0.335 for the first, 0.277 for the second.

Going from U14C G17A to A36C U55A, the self-cleavage falls from 0.861 to 0.243.

Going from C38G U60C to A44U U62C, the self-cleavage falls from 0.233 to 0.0868.

First: U7G G54U
Second: A47U C48U
The self-cleavage of the first is higher: 0.619 for the first, 0.112 for the second.

Compared with A59U U62A, G56A U58G is lower in self-cleavage: 0.326 for the first, 0.274 for the second.

Going from U9G G69C to C10U U20A, the self-cleavage rises from 0.299 to 0.774.

Going from U14A A31C to G13U A28C, the self-cleavage falls from 0.391 to 0.34.

Compared with U8G C66A, C6G G21A is higher in self-cleavage: 0.169 for the first, 0.179 for the second.

Compared with A26U C46G, A49G G56U is lower in self-cleavage: 0.317 for the first, 0.261 for the second.

First: C4A G56C
Second: G29C A44G
The self-cleavage of the first is lower: 0.157 for the first, 0.243 for the second.

Compared with G17U A47C, C16U G56A is lower in self-cleavage: 0.347 for the first, 0.208 for the second.

Going from C3G C66A to A24U A41G, the self-cleavage rises from 0.101 to 0.71.

Compared with C6A U9G, C3G U60A is lower in self-cleavage: 0.419 for the first, 0.167 for the second.

First: G19A G56C
Second: G13U A24U
The self-cleavage of the first is lower: 0.136 for the first, 0.595 for the second.

Going from G34U C66A to C18G C65U, the self-cleavage falls from 1.02 to 0.213.

First: A47U A71C
Second: G56U A59G
The self-cleavage of the first is higher: 0.304 for the first, 0.238 for the second.

Compared with G15U A36G, G21U C48A is lower in self-cleavage: 1.25 for the first, 0.122 for the second.

Compared with G17A C65G, G42U A47C is lower in self-cleavage: 0.485 for the first, 0.22 for the second.

First: C46G U62G
Second: U2C A26U
The self-cleavage of the first is higher: 0.14 for the first, 0.13 for the second.

First: U9A C46G
Second: G15C A24G
The self-cleavage of the first is lower: 0.135 for the first, 0.892 for the second.

Compared with G51A U53G, A41C C46A is lower in self-cleavage: 0.765 for the first, 0.0559 for the second.

Going from C37A A45U to A49C U52A, the self-cleavage falls from 0.169 to 0.0356.

Compared with C3G G56U, G1C G27A is higher in self-cleavage: 0.157 for the first, 0.16 for the second.

Compared with C10G G27A, U7C U70A is higher in self-cleavage: 0.405 for the first, 1.02 for the second.

Going from C3U C6A to G17U G27U, the self-cleavage falls from 0.372 to 0.239.

Going from G25A A36U to A22U A26C, the self-cleavage rises from 0.363 to 0.479.

First: U7G G51U
Second: U9A A23U
The self-cleavage of the first is higher: 0.844 for the first, 0.472 for the second.

First: U20G U62G
Second: U5G A11G
The self-cleavage of the first is lower: 0.323 for the first, 0.335 for the second.

Compared with C12A U67C, C16A U67C is higher in self-cleavage: 0.216 for the first, 0.24 for the second.

Going from A23C A24U to A22G U53G, the self-cleavage rises from 0.626 to 0.936.

First: G32C A44U
Second: A11U G32U
The self-cleavage of the first is higher: 0.22 for the first, 0.0846 for the second.

Going from C12G C65A to C10A A39G, the self-cleavage falls from 0.829 to 0.224.

First: C12G U33G
Second: G25C A49U
The self-cleavage of the first is lower: 0.0897 for the first, 0.21 for the second.

Compared with A61C U67G, G27A C38U is lower in self-cleavage: 0.24 for the first, 0.2 for the second.

Going from U5A A11U to G51U U55A, the self-cleavage rises from 0.196 to 0.302.

First: U5C G34U
Second: U60C C65A
The self-cleavage of the first is higher: 1.45 for the first, 1.34 for the second.

First: G40C U70A
Second: A11G G34A
The self-cleavage of the first is lower: 0.143 for the first, 1.18 for the second.

Compared with U2A A23C, G19A U58C is higher in self-cleavage: 0.262 for the first, 0.856 for the second.

Compared with A11G A47C, A31U C50A is lower in self-cleavage: 0.481 for the first, 0.113 for the second.

Compared with A30U C37A, A41U G51A is higher in self-cleavage: 0.0959 for the first, 1.11 for the second.

Compared with C37A G54A, A23U A71U is higher in self-cleavage: 0.187 for the first, 0.66 for the second.

Compared with G34A U63C, U2G G17A is higher in self-cleavage: 0.0965 for the first, 0.529 for the second.

First: G34U A49U
Second: A43G U62A
The self-cleavage of the first is higher: 1 for the first, 0.125 for the second.

Compared with C4G C18U, C3U U7C is higher in self-cleavage: 0.284 for the first, 0.553 for the second.

First: U5C G19U
Second: A26G G51U
The self-cleavage of the first is lower: 0.565 for the first, 0.9 for the second.

Compared with G19A A64G, G19A A36G is higher in self-cleavage: 0.579 for the first, 0.997 for the second.

Compared with G1U G57A, A23G A44G is lower in self-cleavage: 0.175 for the first, 0.126 for the second.

First: C4G U62C
Second: A26G C66G
The self-cleavage of the first is lower: 0.148 for the first, 0.353 for the second.

Compared with G1C, A22G G27C is lower in self-cleavage: 0.203 for the first, 0.161 for the second.

Compared with A24U C48U, A31U A47U is lower in self-cleavage: 0.252 for the first, 0.141 for the second.

For C10G A44G, the self-cleavage was 0.108.

Source: the RNAGym collection of RNA variant scans (doi:10.7554/elife.80360)
